Assay results taken from US20160207973A1 (Pfizer, published 2016).
Read-outs that look alike come from different tables or passages of the source. Values belong to the binder of their own block, whether it stands above or below them.

B1: ActRIIB receptor-human-IgG1-Fc fusion protein (Fc fusion, UniProt Q13705 19-137, looked up)
chain: SGRGEAETRECIYYNANWELERTNQSGLERCEGEQDKRLHCYASWRNSSGTIELVKKGCWLDDFNCYDRQECVATEENPQVYFCCCEGNFCNERFTHLPEAGGPEVTYEPPPTAPTLLT
notes: extracellular domain; See note of m11; also called ATRIIB; not shown: human IgG1 Fc
B2: ALK3 receptor-human-IgG1-Fc fusion protein (Fc fusion, UniProt P36894 24-152, looked up)
chain: QNLDSMLHGTGMKSDSDQKKSENGVTLAPEDTLPFLKCYCSGHCPDDAINNTCITNGHCFAIIEEDDQGETTLASGCMKYEGSDFQCKDSPKAQLRRTIECCRTNLCNQYLQPTLPPVVIGPFFDGSIR
notes: extracellular domain; See note of m11; also called BMPRIa; not shown: human IgG1 Fc
B4: wild type BMP2 homodimer (ligand)
chain: QAKHKQRKRLKSSCKRHPLYVDFSDVGWNDWIVAPPGYHAFYCHGECPFPLADHLNSTNHAIVQTLVNSVNSKIPKACCVPTELSAISMLYLDENEKVVLKNYQDMVVEGCGCR
modifications: N-linked glycan at N56 (CHO-produced)
notes: also called BMP2WT; WT BMP2
B6: designer BMP-GER (ligand)
chain: QAKHKQRKRLKSSCKRHPLYVDFSDVGWNDWIIAPRGYAAFYCDGECSFPLNAHMNATNHAIVQTLVHLMNPEYVPKPCCAPTELNAISVLYFDDNSNVILKNYQDMVVEGCGCR
notes: also called BMPGE P36R
B7: ALK2 receptor-human-IgG1-Fc fusion protein (Fc fusion, UniProt Q04771 21-123, looked up)
chain: MEDEKPKVNPKLYMCVCEGLSCGNEDHCEGQQCFSSLSINDGFHVYQKGCFQVYEQGKMTCKTPPSPGQAVECCQGDWCNRNITAQLPTKGKSFPGTQNFHLE
notes: extracellular domain; also called ActRIa; ActRI; not shown: human IgG1 Fc
B10: ALK6 receptor-human-IgG1-Fc fusion protein (Fc fusion, UniProt O00238 14-126, looked up)
chain: KKEDGESTAPTPRPKVLRCKCHHHCPEDSVNNICSTDGYCFTMIEEDDSGLPVVTSGCLGLEGSDFQCRDTPIPHQRRSIECCTERNECNKDLHPTLPPLKNRDFVDGPIHHR
notes: extracellular domain; See note of m11; also called BMPRIb; not shown: human IgG1 Fc
B11: BMPRII receptor-human-IgG1-Fc fusion protein (Fc fusion, UniProt Q13873 27-150, looked up)
chain: SQNQERLCAFKDPYQQDLGIGESRISHENGTILCSKGSTCYGLWEKSKGDINLVKQGCWSHIGDPQECHYEECVVTTTPPSIQNGTYRFCCCSTDLCNVNFTENFPPPDTTPLSPPHSFNRDET
notes: extracellular domain; See note of m11; also called BMPR IIA; BMPRIIA; not shown: human IgG1 Fc
B12: Noggin (other, UniProt Q13253 28-232, looked up)
chain: QHYLHIRPAPSDNLPLVDLIEHPDPIFDPKEKDLNETLLRSLLGGHYDPGFMATSPPEDRPGGGGGAAGGAEDLAELDQLLRQRPSGAMPSEIKGLEFSEGLAQGKKQRLSKKLRRKLQMWLWSQTFCPVLYAWNDLGSRFWPRYVKVGSCFSKRSCSVPEGMVCKPSKSVHLTVLRWRCQRRGGQRCGWIPIQYPIISECKCSC

What was measured:
[1] = biological target: T1, wild type BMP2/6 heterodimer (human, UniProt P12643 283-396; P22004 375-513); test: BLI (Octet), receptor-Fc on anti-human IgG tips
Procedure: (§1) The Octet QK analysis was performed at […] in TBS with 0.1% Tween-20. Samples were agitated at 1000 rpm. […] Each BMP was prepared as a sevenfold serial dilution (typically 200-3 nM in singlicate) plus buffer blanks. Each Receptor/BMP binding pair was run at least in duplicate. Association was monitored for 10 min and dissociation was followed for […] into buffer alone. Kinetic parameters (kon and koff) and affinities (KD) were calculated using the Octet Data Analysis software 6.0 using a partial binding 1:1 model following manufacturer's instructions.

wild type BMP6 homodimer [2] = biological target: T2, wild type BMP6 homodimer (Homo sapiens (Human), UniProt P22004 375-513, N-linked glycan at N80 (CHO-produced)); test: BLI (Octet), receptor-Fc on anti-human IgG tips
T2 construct: Produced in CHO cells; also called WT BMP6; BMP6/6
T2 sequence: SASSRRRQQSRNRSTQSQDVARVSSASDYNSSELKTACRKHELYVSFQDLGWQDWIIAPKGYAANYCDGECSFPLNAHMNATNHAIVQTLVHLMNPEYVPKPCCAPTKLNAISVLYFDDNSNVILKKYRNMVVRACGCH
Procedure: as §1

[3] = biological target: T1, wild type BMP2/6 heterodimer; test: BLI (Octet), receptor-Fc on anti-human IgG tips; remark: listed apart in the source
Procedure: as §1

wild type BMP6 homodimer [4] = biological target: T2, wild type BMP6 homodimer; test: BLI (Octet), receptor-Fc on anti-human IgG tips; remark: listed apart in the source
Procedure: as §1

[5] = biological target: T3, ALK2 receptor-human-IgG1-Fc fusion protein (human), Q04771; test: BLI (Octet), receptor-Fc on anti-human IgG tips; settings: remark: other sources report otherwise
T3 chain: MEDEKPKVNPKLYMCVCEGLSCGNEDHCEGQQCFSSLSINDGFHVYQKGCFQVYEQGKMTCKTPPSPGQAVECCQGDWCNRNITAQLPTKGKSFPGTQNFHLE

[6] = biological target: B11; test: BLI (Octet), receptor-Fc on anti-human IgG tips
Procedure: as §1

[7] = biological target: B11; test: BLI (Octet), receptor-Fc on anti-human IgG tips; remark: listed apart in the source
Procedure: as §1

[8] = biological target: B7; test: BLI (Octet), receptor-Fc on anti-human IgG tips; Table 12, sign printed '<'
Procedure: as §1

[9] = biological target: T4, ActRIIA receptor-human-IgG1-Fc fusion protein (human, UniProt P27037 20-135, limits assumed); test: BLI (Octet), receptor-Fc on anti-human IgG tips
T4 construct: extracellular domain; See note of m11; not shown: human IgG1 Fc
T4 sequence (P27037 20-135 limits assumed): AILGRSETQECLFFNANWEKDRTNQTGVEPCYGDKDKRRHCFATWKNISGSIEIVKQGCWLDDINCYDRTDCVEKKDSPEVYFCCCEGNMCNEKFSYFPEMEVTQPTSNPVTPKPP
Procedure: as §1

[10] = biological target: B10; test: BLI (Octet), receptor-Fc on anti-human IgG tips
Procedure: as §1

[11] = biological target: B1; test: BLI (Octet), receptor-Fc on anti-human IgG tips
Procedure: as §1

[12] = biological target: T4, ActRIIA receptor-human-IgG1-Fc fusion …; test: BLI (Octet), receptor-Fc on anti-human IgG tips; remark: listed apart in the source
Procedure: as §1

[13] = biological target: B10; test: BLI (Octet), receptor-Fc on anti-human IgG tips; remark: listed apart in the source
Procedure: as §1

[14] = biological target: B1; test: BLI (Octet), receptor-Fc on anti-human IgG tips; remark: listed apart in the source
Procedure: as §1

Noggin = biological target: B12; test: Noggin affinity; method and unit not stated
[15] = biological target: B1; test: ActRIIb affinity; method not given
[16] = biological target: B2; test: BLI (Octet), receptor-Fc on anti-human IgG tips
Procedure: as §1

[17] = biological target: B7; test: BLI (Octet), receptor-Fc on anti-human IgG tips
Procedure: as §1

wild type BMP6 homodimer [18] = biological target: T2, wild type BMP6 homodimer; test: BLI (Octet), receptor-Fc on anti-human IgG tips; Table 13: weak binding, 700 nM
Procedure: as §1

wild type BMP2 homodimer [19] = biological target: B4; test: BLI (Octet), receptor-Fc on anti-human IgG tips
Procedure: as §1

wild type BMP2 homodimer [20] = biological target: B4; test: BLI (Octet), receptor-Fc on anti-human IgG tips; remark: listed apart in the source
Procedure: as §1

designer BMPE = biological target: T5, designer BMPE (N-linked glycan at N56 (CHO-produced)); test: cell-based or functional assay
T5 chain: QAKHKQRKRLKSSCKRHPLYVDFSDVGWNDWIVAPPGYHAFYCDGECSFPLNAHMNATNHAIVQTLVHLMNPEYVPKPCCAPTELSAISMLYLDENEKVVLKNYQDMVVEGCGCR

designer BMP-GER = biological target: B6; test: cell-based or functional assay

Binder: B1
Kd [1]: 1 nM
Kd (wild type BMP6 homodimer [2]): 0.5 nM
Kd [3]: 1 nM
Kd (wild type BMP6 homodimer [4]): 0.5 nM

Binder: B2
Kd (wild type BMP6 homodimer [2]): 11 nM
Kd (wild type BMP6 homodimer [4]): 11 nM

Kd [5]: 250 nM
B3: wild type BMP2/6 heterodimer, P12643 283-396; P22004 375-513 (ligand)
chain 1: QAKHKQRKRLKSSCKRHPLYVDFSDVGWNDWIVAPPGYHAFYCHGECPFPLADHLNSTNHAIVQTLVNSVNSKIPKACCVPTELSAISMLYLDENEKVVLKNYQDMVVEGCGCR
chain 2: SASSRRRQQSRNRSTQSQDVARVSSASDYNSSELKTACRKHELYVSFQDLGWQDWIIAPKGYAANYCDGECSFPLNAHMNATNHAIVQTLVHLMNPEYVPKPCCAPTKLNAISVLYFDDNSNVILKKYRNMVVRACGCH

Binder: B4
Kd [6]: 62 nM
Kd [7]: 62 nM

Kd [8]: > 1000 nM
Kd [9]: 2 nM
Kd [10]: 1 nM
Kd [6]: 4 nM
Kd [11]: 0.5 nM
Kd [12]: 2 nM
Kd [13]: 1 nM
Kd [7]: 4 nM
Kd [14]: 0.5 nM
B5: designer BMPG (ligand)
chain: QAKHKQRKRLKSSCKRHPLYVDFSDVGWNDWIIAPKGYAAFYCHGECPFPLADHLNSTNHAIVQTLVNSVNSKIPKACCVPTELNAISVLYFDDNSNVILKNYQDMVVEGCGCR
notes: Produced in CHO cells; dimer as the other BMPs

Binder: B6
Noggin Affinity (Noggin): 4
Kd [15]: 2 nM
Kd [16]: 2 nM
Kd [9]: 2 nM
Kd [10]: 1 nM
Kd [6]: 3.5 nM
Kd [17]: 2 nM
Kd [11]: 0.5 nM

Binder: B7
Kd (wild type BMP6 homodimer [18]): 700 nM

Noggin Affinity (Noggin): 6
Kd [15]: 0.5 nM
B8: designer BMP-E-NR (ligand)
chain: QAKHKQRKRLKSSCKRHPLYVDFSDVGWNDWIVAPPGYHAFYCDGECSFPLNAHMNATNHAIVQTLVHLMNPEYVPKPCCAPTKLRPMSMLYYDDGQNIIKKDIQNMIVEECGCS

Noggin Affinity (Noggin): 7.5
Kd [15]: 0.07 nM
B9: designer BMP-GER-NR (ligand)
chain: QAKHKQRKRLKSSCKRHPLYVDFSDVGWNDWIIAPRGYAAFYCDGECSFPLNAHMNATNHAIVQTLVHLMNPEYVPKPCCAPTKLRPMSMLYYDDGQNIIKKDIQNMIVEECGCS

Binder: B10
Kd [1]: 0.5 nM
Kd (wild type BMP2 homodimer [19]): 1 nM
Kd (wild type BMP6 homodimer [2]): 20 nM
Kd [3]: 0.5 nM
Kd (wild type BMP2 homodimer [20]): 1 nM
Kd (wild type BMP6 homodimer [4]): 20 nM

Binder: B11
Kd [1]: 3 nM
Kd (wild type BMP6 homodimer [2]): 4 nM
Kd [3]: 3 nM
Kd (wild type BMP6 homodimer [4]): 4 nM

Binder: B12
IC50 (read off the curve) (designer BMPE): ~0.09 mg/L
IC50 (read off the curve) (designer BMP-GER): ~0.04 mg/L
